The source of these data is US20210105983A1.

Experiment [1] deals with mouse PD-L1 polypeptide on T cells of wild-type mice (mouse) (UniProt Q9EP73). The experiment can be described thus: flow cytometry, CD8+ T cells from spleen of wild-type mouse, isotype control in α-hPD-L1 column. For orientation: Flow cytometry measures light scatter and fluorescence of single cells or particles in a stream.
Experiment [2] concerns the target humanized PD-L1 polypeptide (human portion and endogenous mouse portion) on T cells of mice homozygous for the humanized CD274 gene of Example 1 (human; mouse) (UniProt Q9NZQ7). The experiment is described as follows: flow cytometry, CD8+ T cells (CD3+CD8+) from spleen of humanized CD274 mouse, isotype control in α-hPD-L1 column.
Experiment [3] shares this target. The experiment is described as follows: flow cytometry, CD4+ T cells (CD3+CD4+) from spleen of humanized CD274 mouse, isotype control in α-hPD-L1 column.
For experiment [4], the target named is mouse PD-L1 polypeptide on T cells of wild-type mice (mouse) (UniProt Q9EP73). The experiment is described as follows: flow cytometry, CD4+ T cells from spleen of wild-type mouse, isotype control in α-hPD-L1 column.
Experiment [5] shares this target. The experiment can be described thus: flow cytometry, CD8+ T cells from spleen of wild-type mouse, isotype control in α-mPD-L1 column.
The target is the same in experiment [6]. The experiment can be described thus: flow cytometry, CD4+ T cells from spleen of wild-type mouse, isotype control in α-mPD-L1 column.
Experiment [7] addresses humanized PD-L1 polypeptide (human portion and endogenous mouse portion) on T cells of mice homozygous for the humanized CD274 gene of Example 1 (human; mouse) (UniProt Q9NZQ7). The experiment can be described thus: flow cytometry, CD4+ T cells (CD3+CD4+) from spleen of humanized CD274 mouse, isotype control in α-mPD-L1 column.
Experiment [8] has the same target. The experiment is described as follows: flow cytometry, CD8+ T cells (CD3+CD8+) from spleen of humanized CD274 mouse, isotype control in α-mPD-L1 column.
The target is the same in experiment [9]. The experiment is described as follows: flow cytometry, CD4+ T cells from spleen of humanized CD274 mouse, stimulated with anti-CD3/anti-CD28 for 72 hours.
The target in experiment [10] is mouse PD-L1 polypeptide on T cells of wild-type mice (mouse) (UniProt Q9EP73). The experiment is described as follows: flow cytometry, CD8+ T cells from spleen of wild-type mouse, stimulated with anti-CD3/anti-CD28 for 72 hours.
Experiment [11] concerns the target humanized PD-L1 polypeptide (human portion and endogenous mouse portion) on T cells of mice homozygous for the humanized CD274 gene of Example 1 (human; mouse) (UniProt Q9NZQ7). The experiment can be described thus: flow cytometry, CD8+ T cells from spleen of humanized CD274 mouse, stimulated with anti-CD3/anti-CD28 for 72 hours.
Experiment [12] has the same target. The experiment is described as follows: flow cytometry, CD4+ T cells from spleen of humanized CD274 mouse, unstimulated.
In experiment [13] the target is mouse PD-L1 polypeptide on T cells of wild-type mice (mouse) (UniProt Q9EP73). The experiment can be described thus: flow cytometry, CD4+ T cells from spleen of wild-type mouse, unstimulated.
In experiment [14] the target is humanized PD-L1 polypeptide (human portion and endogenous mouse portion) on T cells of mice homozygous for the humanized CD274 gene of Example 1 (human; mouse) (UniProt Q9NZQ7). The experiment is described as follows: flow cytometry, CD8+ T cells from spleen of humanized CD274 mouse, unstimulated.
Experiment [15] addresses mouse PD-L1 polypeptide on T cells of wild-type mice (mouse) (UniProt Q9EP73). The experiment is described as follows: flow cytometry, CD8+ T cells from spleen of wild-type mouse, unstimulated.
Experiment [16] shares this target. The experiment can be described thus: flow cytometry, CD4+ T cells from spleen of wild-type mouse, stimulated with anti-CD3/anti-CD28 for 72 hours.

UniProt Q9NZQ7, sequence (Q9NZQ7 other isoform, or with tags, fused parts or gaps limits assumed): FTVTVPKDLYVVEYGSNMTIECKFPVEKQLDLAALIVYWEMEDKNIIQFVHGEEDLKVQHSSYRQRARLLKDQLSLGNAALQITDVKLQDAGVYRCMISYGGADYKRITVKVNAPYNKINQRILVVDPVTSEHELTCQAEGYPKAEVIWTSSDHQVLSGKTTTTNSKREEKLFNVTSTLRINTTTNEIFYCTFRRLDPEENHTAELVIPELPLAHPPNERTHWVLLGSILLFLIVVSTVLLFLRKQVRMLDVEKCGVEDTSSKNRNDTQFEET
UniProt Q9EP73, sequence (Q9EP73 19-290): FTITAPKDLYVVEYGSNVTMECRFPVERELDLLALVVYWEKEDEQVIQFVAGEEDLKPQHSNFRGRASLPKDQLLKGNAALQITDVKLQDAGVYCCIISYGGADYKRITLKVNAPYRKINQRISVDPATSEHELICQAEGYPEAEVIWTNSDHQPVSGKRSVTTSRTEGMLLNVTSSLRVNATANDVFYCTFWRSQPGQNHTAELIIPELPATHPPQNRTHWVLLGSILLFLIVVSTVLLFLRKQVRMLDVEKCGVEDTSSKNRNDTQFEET

With “Isotype control (α-hPD-L1 columns of Table 5) (antibody)”, the Mean Fluorescence Intensity was 64 in [1], 78 in experiment [2], -55 in [3] and -58 in experiment [4].

For “Isotype control (α-mPD-L1 columns of Table 5) (antibody)”, the Mean Fluorescence Intensity is 64 in experiment [5], -39 in experiment [6], -52 in [7] and 84 in experiment [8].

Take “anti-mouse PD-L1 antibody, clone 10F.9G2 (eBioscience)”: the Mean Fluorescence Intensity stood at 155 in experiment [9]; 3170 in experiment [10]; 276 in [11]; 61 in experiment [12]; 538 in experiment [13]; 160 in experiment [14]. Also, the Mean Fluorescence Intensity came to 712 in experiment [15] and 2800 in [16].

For the substance “anti-human PD-L1 antibody, clone MIH1 (BD Biosciences)”, the Mean Fluorescence Intensity in experiment [9] is 457; in experiment [10] it was 113; in experiment [11], 384; in experiment [12], 114; in experiment [13], -45; in experiment [14], 271. Also, the values for the Mean Fluorescence Intensity in experiment [15] and in experiment [16] were 62 and 22, respectively.
